Data published in patent US20210238283A1 (Y BIOLOGICS, published 2021).
Several values for one entry are separate records, joined by “and”; a condition that tells them apart may be missing. Equal entries are not always repeated.

Tests used:
[1] = molecular target: T1, monkey (Rhesus monkey) LAG-3 overexpressed on HEK293E cells (Rhesus monkey, UniProt A0A5F8A874 23-533); assay: flow cytometry, HEK293E cells overexpressing monkey LAG-3
T1 construct: whole, on cells; also called HEK293E-MrhLAG3; MrhLAG3 (Rhesus Monkey)
T1 sequence: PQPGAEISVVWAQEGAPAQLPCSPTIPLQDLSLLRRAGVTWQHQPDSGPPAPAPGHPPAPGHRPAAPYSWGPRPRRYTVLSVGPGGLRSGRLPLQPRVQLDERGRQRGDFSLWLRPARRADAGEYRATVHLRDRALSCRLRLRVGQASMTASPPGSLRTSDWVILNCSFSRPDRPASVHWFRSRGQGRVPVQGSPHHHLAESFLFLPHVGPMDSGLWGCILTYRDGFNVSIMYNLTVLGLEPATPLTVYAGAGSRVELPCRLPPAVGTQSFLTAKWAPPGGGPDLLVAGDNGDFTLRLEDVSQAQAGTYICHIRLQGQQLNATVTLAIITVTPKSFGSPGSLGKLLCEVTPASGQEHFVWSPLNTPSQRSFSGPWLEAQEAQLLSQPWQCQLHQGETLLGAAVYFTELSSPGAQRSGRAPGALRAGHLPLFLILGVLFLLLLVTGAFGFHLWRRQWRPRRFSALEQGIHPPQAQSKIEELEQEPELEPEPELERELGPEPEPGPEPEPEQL
Experimental: (§1) After that, the cells were washed three times with PBS containing 2% FBS and then subjected to the reaction for 30 minutes at 4° C. with anti-human IgG antibody (#FI-3000, Vectorlabs) linked with FITC fluorescent. The cells were washed by the same washing process as above followed by suspension in 0.2 ml PBS containing 2% FBS. The cells were then analyzed by FACSCanto II flow cytometer.

[2] = molecular target: T2, human LAG-3 overexpressed on cells (human, UniProt P18627 23-525); assay: cell-based or functional assay
T2 sequence (looked up): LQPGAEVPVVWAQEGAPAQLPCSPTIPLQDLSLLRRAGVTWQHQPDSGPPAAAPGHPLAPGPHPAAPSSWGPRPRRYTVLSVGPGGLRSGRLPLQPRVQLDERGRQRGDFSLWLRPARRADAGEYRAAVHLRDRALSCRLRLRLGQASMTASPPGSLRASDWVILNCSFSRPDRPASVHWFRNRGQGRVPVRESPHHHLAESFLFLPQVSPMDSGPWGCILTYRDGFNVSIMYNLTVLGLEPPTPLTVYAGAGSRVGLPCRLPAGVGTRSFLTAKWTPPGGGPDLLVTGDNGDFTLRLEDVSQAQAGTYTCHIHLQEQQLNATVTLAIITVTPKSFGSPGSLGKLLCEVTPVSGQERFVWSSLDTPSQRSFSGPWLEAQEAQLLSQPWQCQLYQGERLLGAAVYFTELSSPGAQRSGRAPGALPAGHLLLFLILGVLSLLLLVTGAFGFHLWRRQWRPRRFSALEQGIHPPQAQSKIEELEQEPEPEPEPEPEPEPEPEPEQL

[3] = molecular target: T3, recombinant monkey LAG-3 fused with mouse Fc (MrhLAG-3-mFc) (monkey); assay: Octet biolayer interferometry, 1:1 global fit
T3 construct: also called monkey LAG-3 antigen
Experimental: (§2) After stabilization for 10 minutes in a buffer (#18-1042, Fortebio Inc.), immobilized antigen or antibody was washed out for 5 minutes with the buffer. The antibody or antigen desired for binding was prepared at different concentrations (0.94-60 nM) in a 96-well plate (#655209, Greiner Bio-One, USA) and subjected to the association reaction for 10 minutes followed by dissociation reaction for 10 minutes or 30 minutes.

[4] = molecular target: T4, recombinant mouse LAG-3 fused with mouse Fc (mLAG-Fc) (mouse, UniProt Q61790 24-442, limits assumed); assay: Octet biolayer interferometry, 1:1 global fit
T4 construct: also called mouse LAG-3 antigen; not shown: mouse Fc (mFc) at the carboxy terminal
T4 sequence (looked up): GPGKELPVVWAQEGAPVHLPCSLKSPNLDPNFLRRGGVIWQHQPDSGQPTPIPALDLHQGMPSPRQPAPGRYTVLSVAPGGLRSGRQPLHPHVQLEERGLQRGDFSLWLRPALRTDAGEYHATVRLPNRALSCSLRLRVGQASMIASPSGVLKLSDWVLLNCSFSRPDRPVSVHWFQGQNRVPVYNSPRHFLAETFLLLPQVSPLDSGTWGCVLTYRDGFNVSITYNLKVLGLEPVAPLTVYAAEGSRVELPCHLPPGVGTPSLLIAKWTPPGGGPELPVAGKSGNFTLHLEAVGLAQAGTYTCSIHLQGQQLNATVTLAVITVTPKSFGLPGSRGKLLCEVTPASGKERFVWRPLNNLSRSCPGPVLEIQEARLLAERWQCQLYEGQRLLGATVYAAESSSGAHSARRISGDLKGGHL
Experimental: as §2

[5] = molecular target: T5, recombinant human LAG-3 extracellular domain fused with mouse Fc (hLAG-3-mFc) (human, UniProt P18627 29-450); assay: Octet biolayer interferometry, 1:1 global fit
T5 construct: range 29-450; Made in HEK293F cells; also called human LAG-3 antigen; wild-type (WT) LAG-3; not shown: mouse Fc (mFc) at the carboxy terminal
T5 sequence (looked up): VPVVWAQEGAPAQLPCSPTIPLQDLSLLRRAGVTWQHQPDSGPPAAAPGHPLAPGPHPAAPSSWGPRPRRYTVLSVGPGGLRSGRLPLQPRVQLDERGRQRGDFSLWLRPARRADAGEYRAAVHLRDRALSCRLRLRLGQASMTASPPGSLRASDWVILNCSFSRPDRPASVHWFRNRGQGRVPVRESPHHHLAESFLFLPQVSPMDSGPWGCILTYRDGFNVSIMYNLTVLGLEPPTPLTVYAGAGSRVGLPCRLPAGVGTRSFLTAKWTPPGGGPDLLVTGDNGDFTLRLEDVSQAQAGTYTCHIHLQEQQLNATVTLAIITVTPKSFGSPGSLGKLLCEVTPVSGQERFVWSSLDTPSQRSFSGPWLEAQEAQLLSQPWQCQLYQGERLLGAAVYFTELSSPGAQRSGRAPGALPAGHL
Experimental: as §2

[6] = molecular target: T2, human LAG-3 overexpressed on cells; assay: flow cytometry, HEK293E cells overexpressing human LAG-3
Experimental: as §1

EC50 [1]: 0.246 µg/mL | EC50 (µg/ml), LAG3/MHC class II Blockade bioassay [2]: 0.0688 µg/mL and 0.186 µg/mL | koff [3]: 6.08e-05 s⁻¹ | kon [3]: 185000 M⁻¹ s⁻¹ | koff [4]: 0.000256 s⁻¹ | kon [4]: 430000 M⁻¹ s⁻¹ | koff [5]: 7.23e-05 s⁻¹ | kon [5]: 788000 M⁻¹ s⁻¹ | EC50 [6]: 0.0757 µg/mL
B1: human anti-LAG-3 monoclonal antibody 1E09 (antibody, V domains shown)
VH: QVQLVQSGGDLVKPGGSLRLSCAASGFSFSDHYMNWIRQAPGKGLEWVAYIDTSATYIYYADSVKGRFTISRDNAKNSLYLQMNSLRAEDTAVYYCARDNWGSLDYWGQGALVTVSS
VL: DIQMTQSPSSLSPSVGDRVTITCQASQEISIYLNWYQQKPGKAPKLLIYDASNLETGVPSRFSGSGSGTDFTLTISSLQPEDFATYYCQQTYITPYTFGQGTKLDIK
notes: Tested as full IgG converted from scFv; also called LAG-3-1E09; Parent (1E09)
